Results reported in publication PMC4769881 (Molecular cell, 2016).

Molecular target: the molecule itself
Assay: AUC

B1: NBB182 (human MLKL N-terminal helix bundle and whole brace, to residue 182), tagless purified protein (domain or fragment, UniProt Q8NB16 1-182, looked up)
chain: MENLKHIITLGQVIHKRCEEMKYCKKQCRRLGHRVLGLIKPLEMLQDQGKRSVPSEKLTTAMNRFKAALEEANGEIEKFSNRSNICRFLTASQDKILFKDVNRKLSDVWKELSLLLQVEQRMPVSPISQGASWAQEDQQDADEDRRAFQMLRRDNEKIEASLRRLEINMKEIKETLRQYLPP
  stoichiometry N: 2
